Data: patent US20120196804A1
Read-outs that look alike come from different tables or passages of the source.

Columns and labels:
Experiment in all cases: cell-based or functional assay
GLP-1 receptor [1] = molecular target: GLP-1 receptor
glucagon receptor = molecular target: glucagon receptor
GLP-1 receptor [2] = molecular target: GLP-1 receptor; remark: listed apart in the source

- cAMP Induction, EC50 (luciferase reporter, HEK293) (GLP-1 receptor [1]): 0.05 nM
- cAMP Induction, EC50 (luciferase reporter, HEK293) (glucagon receptor): > 1000 nM
- cAMP Induction, EC50 (luciferase reporter, HEK293) (GLP-1 receptor [2]): 0.04 nM
Substance: GLP-1 (peptide)
